Data published in the supplement of paper PMC9112550, “Optimization of the antimicrobial peptide Bac7 by deep mutational scanning” (BMC Biology, 2022).

System: Escherichia coli TOP10
Experiment: shrunken log2 fold change of peptide-encoding DNA abundance (4.5 h post-induction vs induction); higher = less antimicrobial activity (less host growth inhibition)
Settings: time post-induction: 4.5 h; library: site-saturation at positions 5, 18, 19, 20
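Also: peptides expressed intracellularly from a pBAD plasmid library in pooled LB shake-flask culture, induced with 0.3% L-arabinose, DNA abundance read by NGS, three biological replicates, DESeq2 with apeglm shrinkage.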

Point of comparison: RRIRCRPPRLPRPRPRPTASPRP, “shrunken log2 fold change” value 0.266. Against it:
- RRIRVRPPRLPRPRPRPTHVPRP — lower, 0.0149
- RRIRVRPPRLPRPRPRPIPTPRP — within 0.2 log units, 0.191
- RRIRWRPPRLPRPRPRPAVVPRP — within 0.2 log units, 0.0979
- RRIRSRPPRLPRPRPRPCHPPRP — lower, 0.0162
- RRIRERPPRLPRPRPRPMMEPRP — lower, -0.0582
- RRIRSRPPRLPRPRPRPLKKPRP — lower, 0.0577
- RRIRVRPPRLPRPRPRPCFPPRP — within 0.2 log units, 0.228
- RRIRIRPPRLPRPRPRPNMFPRP — lower, -0.394
- RRIRPRPPRLPRPRPRPITLPRP — lower, 0.0118
- RRIRTRPPRLPRPRPRPQLLPRP — lower, 0.0259
- RRIRLRPPRLPRPRPRPFENPRP — lower, -0.388
- RRIRFRPPRLPRPRPRPGQKPRP — lower, -0.0331
- RRIRTRPPRLPRPRPRPNVMPRP — within 0.2 log units, 0.0814
- RRIRRRPPRLPRPRPRPDHLPRP — lower, -0.0237
- RRIRPRPPRLPRPRPRPHLSPRP — lower, -0.142
- RRIRIRPPRLPRPRPRPDCSPRP — within 0.2 log units, 0.0951
- RRIRNRPPRLPRPRPRPPVHPRP — lower, -0.148
- RRIRMRPPRLPRPRPRPCGDPRP — within 0.2 log units, 0.34
- RRIRERPPRLPRPRPRPQVLPRP — lower, -0.0121
- RRIRQRPPRLPRPRPRPRIMPRP — lower, -0.0396
- RRIRGRPPRLPRPRPRPPPCPRP — higher, 1.16
- RRIRSRPPRLPRPRPRPYSLPRP — lower, -0.35
- RRIRHRPPRLPRPRPRPACLPRP — lower, -0.221
- RRIRLRPPRLPRPRPRPCCSPRP — lower, -0.144
- RRIRSRPPRLPRPRPRPIWPPRP — lower, 0.0426
- RRIRIRPPRLPRPRPRPLMMPRP — lower, -1.03
- RRIRLRPPRLPRPRPRPLEVPRP — lower, -0.0281
- RRIRGRPPRLPRPRPRPNPYPRP — lower, -0.0945
- RRIRRRPPRLPRPRPRPFHRPRP — lower, 0.0574
- RRIRVRPPRLPRPRPRPIRPPRP — lower, -0.0154
- RRIRRRPPRLPRPRPRPNYKPRP — lower, -0.232
- RRIRKRPPRLPRPRPRPQRRPRP — higher, 0.734
- RRIRFRPPRLPRPRPRPHSRPRP — lower, -0.112
- RRIRLRPPRLPRPRPRPTYFPRP — lower, -0.451
- RRIRRRPPRLPRPRPRPQHWPRP — within 0.2 log units, 0.179
- RRIRNRPPRLPRPRPRPHQRPRP — within 0.2 log units, 0.244
- RRIRYRPPRLPRPRPRPHQCPRP — lower, -0.0856
- RRIRKRPPRLPRPRPRPLCHPRP — within 0.2 log units, 0.252
- RRIRSRPPRLPRPRPRPYNAPRP — lower, -0.254
- RRIRTRPPRLPRPRPRPIDEPRP — within 0.2 log units, 0.0904
- RRIRKRPPRLPRPRPRPKYWPRP — within 0.2 log units, 0.255
- RRIRTRPPRLPRPRPRPPVWPRP — lower, 0.0152
- RRIRARPPRLPRPRPRPKQEPRP — within 0.2 log units, 0.254
- RRIRWRPPRLPRPRPRPKDMPRP — lower, -0.0331
- RRIRYRPPRLPRPRPRPPNIPRP — lower, -0.659
- RRIRNRPPRLPRPRPRPMCAPRP — lower, -0.253
- RRIRGRPPRLPRPRPRPDMPPRP — within 0.2 log units, 0.168
- RRIRTRPPRLPRPRPRPCMIPRP — lower, -0.546
- RRIRTRPPRLPRPRPRPVCDPRP — within 0.2 log units, 0.0701
- RRIRGRPPRLPRPRPRPAPRPRP — higher, 1.85
- RRIRERPPRLPRPRPRPTDWPRP — lower, -0.145
- RRIRHRPPRLPRPRPRPCVAPRP — lower, 0.0478
- RRIRCRPPRLPRPRPRPMCTPRP — lower, -0.098
- RRIRCRPPRLPRPRPRPDNNPRP — lower, -0.661
- RRIRGRPPRLPRPRPRPFVVPRP — within 0.2 log units, 0.222
- RRIRIRPPRLPRPRPRPCNPPRP — lower, -0.123
- RRIRHRPPRLPRPRPRPLGKPRP — lower, -0.239
- RRIRERPPRLPRPRPRPIHVPRP — lower, -0.274
- RRIRDRPPRLPRPRPRPYLIPRP — lower, -0.387
- RRIRLRPPRLPRPRPRPMLHPRP — lower, -0.34
- RRIRLRPPRLPRPRPRPDHGPRP — lower, -0.147
- RRIRSRPPRLPRPRPRPLACPRP — within 0.2 log units, 0.268
- RRIRVRPPRLPRPRPRPTACPRP — lower, -0.124
- RRIRRRPPRLPRPRPRPIEQPRP — lower, 0.0304
- RRIRIRPPRLPRPRPRPIHHPRP — lower, -0.65
- RRIRVRPPRLPRPRPRPFCGPRP — lower, -0.0559
- RRIRERPPRLPRPRPRPKTGPRP — lower, -0.0863
- RRIRPRPPRLPRPRPRPFPGPRP — lower, -0.226
- RRIRKRPPRLPRPRPRPEVNPRP — higher, 3.37
- RRIRCRPPRLPRPRPRPDHKPRP — lower, -1.04
- RRIRWRPPRLPRPRPRPKDCPRP — lower, -0.0724
- RRIRQRPPRLPRPRPRPKQFPRP — within 0.2 log units, 0.102
- RRIRYRPPRLPRPRPRPTENPRP — lower, -0.239
- RRIRWRPPRLPRPRPRPSMYPRP — lower, -0.326
- RRIRDRPPRLPRPRPRPSWIPRP — lower, -0.454
- RRIRARPPRLPRPRPRPVPYPRP — lower, -0.0718
- RRIRERPPRLPRPRPRPSWYPRP — lower, -1
- RRIRQRPPRLPRPRPRPKCWPRP — higher, 0.621
- RRIRWRPPRLPRPRPRPFYAPRP — lower, -0.174
- RRIRERPPRLPRPRPRPETMPRP — within 0.2 log units, 0.0664
- RRIRGRPPRLPRPRPRPANAPRP — higher, 0.694
- RRIRRRPPRLPRPRPRPGVWPRP — higher, 0.47
- RRIRNRPPRLPRPRPRPCDDPRP — within 0.2 log units, 0.0873
- RRIRSRPPRLPRPRPRPLIIPRP — lower, -0.678
- RRIRVRPPRLPRPRPRPVRHPRP — within 0.2 log units, 0.0933
- RRIRVRPPRLPRPRPRPKHQPRP — within 0.2 log units, 0.0697
- RRIRMRPPRLPRPRPRPKSEPRP — lower, 0.0246
- RRIRVRPPRLPRPRPRPHEFPRP — lower, -0.0515
- RRIRVRPPRLPRPRPRPQPGPRP — within 0.2 log units, 0.255
- RRIRNRPPRLPRPRPRPDFWPRP — within 0.2 log units, 0.3
- RRIRSRPPRLPRPRPRPHSQPRP — within 0.2 log units, 0.0681
- RRIRKRPPRLPRPRPRPMCVPRP — within 0.2 log units, 0.208
- RRIRIRPPRLPRPRPRPSCKPRP — lower, -0.122
- RRIRFRPPRLPRPRPRPSARPRP — within 0.2 log units, 0.0874
- RRIRYRPPRLPRPRPRPYSPPRP — lower, -0.0311
- RRIRHRPPRLPRPRPRPKACPRP — lower, -0.01
- RRIRWRPPRLPRPRPRPGLEPRP — higher, 1.46
- RRIRTRPPRLPRPRPRPYGWPRP — lower, -0.123
- RRIRPRPPRLPRPRPRPMLVPRP — within 0.2 log units, 0.0962
- RRIRIRPPRLPRPRPRPRVWPRP — higher, 0.618
- RRIRQRPPRLPRPRPRPQKNPRP — lower, -0.297
- RRIRCRPPRLPRPRPRPYRYPRP — lower, -0.262
- RRIRDRPPRLPRPRPRPSYLPRP — lower, -0.233
- RRIRIRPPRLPRPRPRPHPWPRP — lower, -0.319
- RRIRHRPPRLPRPRPRPRCAPRP — within 0.2 log units, 0.189
- RRIRLRPPRLPRPRPRPIRWPRP — lower, -0.241
- RRIRQRPPRLPRPRPRPLRFPRP — lower, -0.041
- RRIRIRPPRLPRPRPRPHHHPRP — lower, -0.719
